Measured values as given in patent publication US20240307442.

B1: Active Neutrophil Elastase (protein)
chain: IVGGRRARPHAWPFMVSLQLRGGHFCGATLIAPNFVMSAAHCVANVNVRAVRVVLGAHNLSRREPTRQVFAVQRIFENGYDPVNLLNDIVILQLNGSATINANVQVAQLPAQGRRLGNGVQCLAMGWGLLGRNRGIASVLQELNVTVVTSLCRRSNVCTLVRGRQAGVCFGDSGSPLVCNGLIHGIASFVRGGCASGLYPDAFAPVAQFVNWIDSIIQ
What does the source list for B1?
Western Blot of ECM molecules degraded by culture media (collagen I): NE released by GCC CAR CK+NE cells can degrade ECM molecules when GCC CAR CK+NE Cells are co-cultured with the substrate cells; Western Blot of ECM molecules degraded by culture media (collagen IV): NE released by GCC CAR CK+NE cells can degrade ECM molecules when GCC CAR CK+NE Cells are co-cultured with the substrate cells; Western Blot of ECM molecules degraded by culture media (fibronectin): NE released by GCC CAR CK+NE cells can degrade ECM molecules when GCC CAR CK+NE Cells are co-cultured with the substrate cells
